Data on 1 substance can be found in patent publication US9266939B2, “Compositions comprising natriuretic peptides and methods of use thereof” (Alexion Pharmaceuticals, Inc., priority 2010, dated 2016).

This series in a line: In vivo pharmacokinetic study of NC2st administered IV or SC in C57BL/6 mice. The settings on record: male mice; for AUClast: 20 mg/kg single dose, serum. The method, then:
NC2st was formulated at a concentration of 5.79 mg/mL in 25 mM sodium phosphate pH 7.4, 150 mM NaCl. The animals received NC2st as a single IV or SC dose (20 mg/kg) as described in Table 3 below. Injections were scheduled between 7:00 and 10:15 AM. Each mouse was injected with test article subcutaneously into the scapular region or immobilized in a rodent restrainer and injected with the test article as an intravenous bolus via the caudal vein. […] The animals received only one dose before scheduled blood collection and sacrifice. Individual body weights were assessed before scheduled test article injection and the volume of test article administered was based on body weight determination. Blood samples (0.1 to 0.12 mL) were collected via a jugular vein under isoflurane anesthesia at different time points. At the last time point, blood samples were collected by cardiac puncture under isoflurane anesthesia. Blood samples were collected into Microvette 200Z/gel tube (Sarstedt, serum/gel clotting activator, #20.1291), incubated at room temperature for 30 to 60 minutes, and centrifuged at 10,000×g for five minutes at 2-8° C. Serum was then transferred into a fresh 0.5 mL tube (Sarstedt, #72.699), snap-frozen in liquid nitrogen, and stored at -80° C. until analysis. […] Formulated NC2st protein spiked in serum served as a standard. Pharmacokinetic profiles were derived from the concentration measured by EIA. A non-compartmental analysis (NCA) was used to calculate the pharmacokinetic parameters of testing compound. […] NCA Model 200 was selected for extravascular input or Model 201 for IV-Bolus input using sparse sampling analysis module for both models. The following non-compartmental PK parameters were calculated: • Area under the curve from time zero to the last detectable concentration (AUClast), calculated using the linear trapezoidal (linear interpolation); • Area under the curve from time zero to infinity (AUC∞) calculated [NT]λz (where λz=slope of the terminal phase of the serum concentration vs time curve); • Maximum observed serum concentration (Cmax), time of maximum serum concentration (Tmax); • Terminal elimination half-life (T1/2, calculated as 0.693/λz); • Systemic clearance (CL) was calculated as Dose/AUC∞ and • Total volume of distribution (Vss) was calculated using CL×MRT, where MRT is the mean residence time. Absolute bioavailability (F %) between routes was calculated using the following formula: [AUC∞ (sc)/Dose(sc)]/[AUC∞ (iv)/Dose(iv)]×100. Nominal times were used in the calculations and times are set relative to start of dosing. Nominal doses were used for the calculation of CL.

One may read the Cmax as the maximum level reached in the sampled fluid or tissue. A word on the Tmax: it is the time at which the peak concentration occurs. On to “NC2st: Fc-CNP fusion: Strep-tag II, TEV site, human IgG-1 Fc, 16-amino acid glycine-rich linker, CNP22; SEQ ID NO: 502”, for which, where the note is “IV, 20 mg/kg”, the “AUC∞” value is listed as 28,563 hr · nmol/L, the CL was found to be 0.187 mL/min/kg, the highest level (Cmax) was 2100 nM and the Half-life turned out to be 10.6 h. Under “IV, 20 mg/kg”, the time of peak concentration (Tmax) was found to be 1.00 h and the Vss came out at 0.173 L/kg. Further, for the setting “IV”, the AUClast was 27,587 hr · nmol/L. In addition, where the note is “SC”, the “increase of SC half-life over intravenous CNP22” value is reported as “approximately 340 fold” and the AUClast was 17,735 hr · nmol/L. Further, the Bioavailability (SC vs IV, 20 mg/kg) turned out to be 68.5%. Also, where the note is “SC, 20 mg/kg”, the “AUC∞” value is 19,592 hr · nmol/L, the CL_F came out at 0.272 mL/min/kg, the peak level (Cmax) was 798 nM and the Half-life is 14.3 h. For the same substance, where the note is “SC, 20 mg/kg”, the time of peak concentration (Tmax) was 6.00 h and the Vss_F was determined as 0.353 L/kg.
